Target: T1, adenosine A1 receptor fused to Renilla luciferase (A1R-Rluc) (UniProt P30542 1-326)
T1 sequence (looked up): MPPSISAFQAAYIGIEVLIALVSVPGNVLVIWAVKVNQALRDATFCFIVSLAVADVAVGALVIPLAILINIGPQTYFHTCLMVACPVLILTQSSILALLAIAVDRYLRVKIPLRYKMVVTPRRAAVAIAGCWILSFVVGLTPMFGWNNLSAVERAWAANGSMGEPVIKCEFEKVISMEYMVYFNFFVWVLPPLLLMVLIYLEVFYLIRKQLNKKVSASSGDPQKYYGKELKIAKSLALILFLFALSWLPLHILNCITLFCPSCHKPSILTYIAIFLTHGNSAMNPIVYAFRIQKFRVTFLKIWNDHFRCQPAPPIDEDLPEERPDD
Experiment: FRET or BRET

- BRET50: 2 ± 1 YFP/Rluc ratio
B1: dopamine D1 receptor fused to YFP (D1R-YFP) (receptor, UniProt P21728 1-446, looked up)
chain: MRTLNTSAMDGTGLVVERDFSVRILTACFLSLLILSTLLGNTLVCAAVIRFRHLRSKVTNFFVISLAVSDLLVAVLVMPWKAVAEIAGFWPFGSFCNIWVAFDIMCSTASILNLCVISVDRYWAISSPFRYERKMTPKAAFILISVAWTLSVLISFIPVQLSWHKAKPTSPSDGNATSLAETIDNCDSSLSRTYAISSSVISFYIPVAIMIVTYTRIYRIAQKQIRRIAALERAAVHAKNCQTTTGNGKPVECSQPESSFKMSFKRETKVLKTLSVIMGVFVCCWLPFFILNCILPFCGSGETQPFCIDSNTFDVFVWFGWANSSLNPIIYAFNADFRKAFSTLLGCYRLCPATNNAIETVSINNNGAAMFSSHHEPRGSISKECNLVYLIPHAVGSSEDLKKEEAAGIARPLEKLSPALSVILDYDTDVSLEKIQPITQNGQHPT
